Substitutions are numbered along the chain they refer to.
T1: ERp72 (human, UniProt P13667 25-645)
T1 construct: human ERp72, Glu25-Leu645, cloned into pET15b; source: E. coli BL21 (DE3), purified (Ni-NTA, thrombin digestion, RESOURCE Q, Superdex 200)
T1 sequence (looked up): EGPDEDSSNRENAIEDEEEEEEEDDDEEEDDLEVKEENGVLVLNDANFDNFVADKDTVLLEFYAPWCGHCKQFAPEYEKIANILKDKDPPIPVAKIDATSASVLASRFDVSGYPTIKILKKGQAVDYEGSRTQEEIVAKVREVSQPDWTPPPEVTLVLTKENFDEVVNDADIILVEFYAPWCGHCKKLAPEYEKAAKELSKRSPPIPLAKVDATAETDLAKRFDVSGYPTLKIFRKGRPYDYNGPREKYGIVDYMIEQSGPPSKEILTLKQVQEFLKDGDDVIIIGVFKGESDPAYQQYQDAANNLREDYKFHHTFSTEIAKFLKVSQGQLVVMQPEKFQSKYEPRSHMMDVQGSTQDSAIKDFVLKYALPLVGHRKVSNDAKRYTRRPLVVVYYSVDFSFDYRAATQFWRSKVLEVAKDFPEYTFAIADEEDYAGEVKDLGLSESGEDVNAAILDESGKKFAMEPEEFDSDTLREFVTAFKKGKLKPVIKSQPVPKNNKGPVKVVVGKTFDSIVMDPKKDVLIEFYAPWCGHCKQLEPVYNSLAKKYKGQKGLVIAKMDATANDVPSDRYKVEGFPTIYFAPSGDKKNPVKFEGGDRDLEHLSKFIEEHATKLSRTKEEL

T2: IRE1α LD (human, UniProt O75460 24-446)
T2 construct: human IRE1 (IRE1α LD), Ser24-Thr446, cloned into pGEX6p-1; It prints 'C-terminal GST', although pGEX6p-1 usually adds GST at the N-terminus; both tags were removed in any case; also called ER stress sensor IRE1; source: E. coli BL21 (DE3), purified (Glutathione Sepharose 4B, PreScission digestion, Ni-NTA, RESOURCE Q, Superdex 200); not shown: GST, C-terminal, cleaved
T2 sequence (looked up): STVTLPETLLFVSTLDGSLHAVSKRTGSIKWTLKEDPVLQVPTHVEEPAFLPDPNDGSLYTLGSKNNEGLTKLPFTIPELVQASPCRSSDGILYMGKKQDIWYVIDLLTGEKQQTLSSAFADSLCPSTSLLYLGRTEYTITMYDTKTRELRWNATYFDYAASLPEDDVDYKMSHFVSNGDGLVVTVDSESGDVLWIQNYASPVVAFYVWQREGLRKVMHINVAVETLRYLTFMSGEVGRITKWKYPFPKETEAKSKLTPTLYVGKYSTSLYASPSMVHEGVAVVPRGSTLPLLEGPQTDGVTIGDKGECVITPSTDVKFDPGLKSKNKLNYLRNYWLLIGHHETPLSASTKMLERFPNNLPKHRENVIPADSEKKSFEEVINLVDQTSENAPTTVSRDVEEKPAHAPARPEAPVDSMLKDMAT

B1: P5 (reduced form) (enzyme, human, UniProt Q15084 20-440, looked up)
chain: LYSSSDDVIELTPSNFNREVIQSDSLWLVEFYAPWCGHCQRLTPEWKKAATALKDVVKVGAVDADKHHSLGGQYGVQGFPTIKIFGSNKNRPEDYQGGRTGEAIVDAALSALRQLVKDRLGGRSGGYSSGKQGRSDSSSKKDVIELTDDSFDKNVLDSEDVWMVEFYAPWCGHCKNLEPEWAAAASEVKEQTKGKVKLAAVDATVNQVLASRYGIRGFPTIKIFQKGESPVDYDGGRTRSDIVSRALDLFSDNAPPPELLEIINEDIAKRTCEEHQLCVVAVLPHILDTGAAGRNSYLEVLLKLADKYKKKMWGWLWTEAGAQSELETALGIGGFGYPAMAAINARKMKFALLKGSFSEQGINEFLRELSFGRGSTAPVGGGAFPTIVEREPWDGRDGELPVEDDIDLSDVELDDLGKDEL
notes: human P5 (PDIA6), Lys20-Leu440, cloned into pET15b; Used reduced (10 mM dithiothreitol treatment during purification); this was not measured here; also called ERp5; PDIA6; source: E. coli BL21 (DE3), purified (Ni-NTA, thrombin digestion, RESOURCE Q, Superdex 200)
B2: Catalytically-inactive P5 (Cys55/58/190/193Ala) mutant (enzyme, human, UniProt Q15084 20-440, looked up)
chain: B1 chain with C36A, C39A, C171A, C174A
notes: human P5 (PDIA6), Lys20-Leu440, with the four active-site cysteines changed to alanine; The limits are those stated for the human P5 gene in pET15b; also called mutated P5; source: E. coli BL21 (DE3), purified (Ni-NTA, thrombin digestion, RESOURCE Q, Superdex 200)
B3: ERp46 (enzyme)
chain: not shown
notes: human ERp46, Arg33-Leu432, cloned into pET15b; source: E. coli BL21 (DE3), purified (Ni-NTA, thrombin digestion, RESOURCE Q, Superdex 200)

How the values were obtained:
Conditions in all cases: both partners purified
PDI [1] = target: T3, PDI (human, UniProt P07237 18-508); assay: far-Western, overlay or dot blot; reduced purified prey proteins (from 40 µM stocks, 3 µL) dotted on nitrocellulose; blocked with 5% skim milk in TBST; incubated with 0.2 µM reduced P5 in 20 mM Tris-HCl pH 7.6, 150 mM NaCl, 0.05% Tween 20 at 4 °C for 3 h; bound P5 detected with anti-P5 antiserum
T3 construct: human PDI (P4HB), Asp18-Leu508, cloned into pET15b; also called protein disulfide isomerase; P4HB; source: E. coli BL21 (DE3), purified (Ni-NTA, thrombin digestion, RESOURCE Q, Superdex 200)

ERp72 [2] = target: T1, ERp72; assay: as above
IRE1α LD = target: T2, IRE1α LD; assay: as above
PDI [3] = target: T3, PDI; assay: ITC; 280 µM P5 Cys55/58/190/193Ala mutant in the syringe (50 mM HEPES pH 7.2, 150 mM NaCl) titrated into 40 µM PDI or ERp72 in the cell (50 mM HEPES pH 7.2); 30 °C; one set of sites model
ERp72 [4] = target: T1, ERp72; assay: as above
P5 (reduced form) = target: B1; assay: far-Western, overlay or dot blot; reduced purified prey proteins (from 40 µM stocks, 3 µL) dotted on nitrocellulose; blocked with 5% skim milk in TBST; incubated with 0.2 µM reduced P5 in 20 mM Tris-HCl pH 7.6, 150 mM NaCl, 0.05% Tween 20 at 4 °C for 3 h; bound P5 detected with anti-P5 antiserum

T3 sequence (P07237 18-508): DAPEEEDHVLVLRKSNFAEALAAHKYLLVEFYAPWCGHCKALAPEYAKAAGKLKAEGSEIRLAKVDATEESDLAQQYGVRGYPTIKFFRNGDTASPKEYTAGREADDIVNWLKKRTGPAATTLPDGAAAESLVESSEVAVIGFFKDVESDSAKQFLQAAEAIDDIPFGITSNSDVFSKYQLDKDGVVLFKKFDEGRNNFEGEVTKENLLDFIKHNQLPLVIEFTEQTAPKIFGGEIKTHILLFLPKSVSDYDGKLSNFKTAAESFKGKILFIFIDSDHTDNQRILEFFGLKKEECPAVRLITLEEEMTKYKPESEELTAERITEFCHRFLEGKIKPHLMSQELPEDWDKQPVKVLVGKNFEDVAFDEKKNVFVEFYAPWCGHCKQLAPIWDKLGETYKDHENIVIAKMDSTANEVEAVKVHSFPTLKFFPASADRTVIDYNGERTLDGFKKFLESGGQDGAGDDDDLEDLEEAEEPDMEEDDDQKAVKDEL

Binder: B1
- binding result (PDI [1]): binds
- binding result (ERp72 [2]): binds
- binding result (IRE1α LD): binds

Binder: B2
- dH (PDI [3]): -4.4 ± 0.2 kcal/mol
- stoichiometry N (PDI [3]): 0.1
- dH (ERp72 [4]): -10.7 ± 0.8 kcal/mol
- stoichiometry N (ERp72 [4]): 0.1

Binder: B3
- binding result (P5 (reduced form)): binds

From publication PMC8615271, “Functional Interplay between P5 and PDI/ERp72 to Drive Protein Folding” (Biology, 2021)
